The values that follow come from patent US20210324108A1 (Hoffmann-La Roche, published 2021).

As a reminder, the koff is the first-order rate constant of dissociation. The kon is a measure of how fast the partners come together.

Test [1] deals with T1, recombinant human FAP (human, UniProt Q12884 26-760).
T1 construct: exact construct not described; also called FAP ECD; not shown: The histidine tag (and any linker to it) implied by capture on an anti-histidine antibody
The test can be described thus: SPR, huFAP captured (anti-His), Ab analyte. The method, then:
Around 12000 resonance units (RU) of the capturing system (15 μg/ml anti-histidine antibody; Order Code: 28995056; GE Healthcare Bio-Sciences AB, Sweden) were coupled on a CMS chip (GE Healthcare BR-1005-30) at pH 4.5 by using an amine coupling kit supplied by the GE Healthcare. Running buffer for Immobilization was HBS-N pH 7.4 (10 mM HEPES, 150 mM NaCl, pH 7.4, GE Healthcare). For the following kinetic characterization running buffer was PBS-P pH 7.4 (20 mM phosphate buffer, 2.7 mM KCl, 137 mM NaCl, 0.05% surfactant P20). The flow cell was set to 25° C.—and the sample block set to 12° C.—and primed with running buffer twice. […] The dissociation phase was monitored for up to 720 s and triggered by switching from the sample solution to running buffer. The surface was regenerated by washing with 10 mM Glycine pH 1.5 for 60 s at a flow rate of 30 μl/min. Bulk refractive index differences were corrected by subtracting the response obtained from an anti-histidine surface. Blank injections are also subtracted (=double referencing). For calculation of KD and kinetic parameters the Langmuir 1:1 model was used.
In general terms: In SPR one partner is held on a chip, and binding of the other changes the refractive index at the surface.

In test [2] the target is T2, recombinant human CD40_ECD (human, UniProt P25942 21-193).
T2 construct: also called human CD40 extra cellular domain
The test can be described thus: SPR Biacore T200, huCD40 ECD analyte, apparent KD. The method, then: The capacity of the bispecific constructs to bind human CD40 was assessed by surface plasmon resonance (SPR). […] Bulk refractive index differences were corrected by subtracting the response obtained from a goat anti human F(ab′)2 surface. Blank injections are also subtracted (=double referencing). For calculation of apparent KD and other kinetic parameters the Langmuir 1:1 model was used. The apparent Kd was calculated using the Biacore™ B4000 evaluation software (version 1.1).

B1: FAP (4B9)-CD40 Contorsbody P1AE1799 (bispecific antibody, IgG1)
chain 1: not shown
chain 2: EVQLLESGGGLVQPGGSLRLSCAASGYSFTGYYIHWVRQAPGKGLEWVGRVIPNAGGTSYNQKFKGRFTISVDNSKNTAYLQMNSLRAEDTAVYYCAREGIYWWGQGTTVTVSSASTKGPSVFPLAPSSKSTSGGTAALGCLVKDYFPEPVTVSWNSGALTSGVHTFPAVLQSSGLYSLSSVVTVPSSSLGTQTYICNVNHKPSNTKVDKKVEPKSCGGGGSGGGGSDKTHTCPPCPAPEAAGGPSVFLFPPKPKDTLMISRTPEVTCVVVDVSHEDPEVKFNWYVDGVEVHNAKTKPREEQYNSTYRVVSVLTVLHQDWLNGKEYKCKVSNKALGAPIEKTISKAKGQPREPQVCTLPPSRDELTKNQVSLSCAVKGFYPSDIAVEWESNGQPENNYKTTPPVLDSDGSFFLVSKLTVDKSRWQQGNVFSCSVMHEALHNHYTQKSLSLSPGKGGGGSGGGGSDIQMTQSPSSLSASVGDRVTITCRSSQSLVHSNGNTFLHWYQQKPGKAPKLLIYTVSNRFSGVPSRFSGSGSGTDFTLTISSLQPEDFATYFCSQTTHVPWTFGGGTKVEIKRTVAAPSVFIFPPSDEQLKSGTASVVCLLNNFYPREAKVQWKVDNALQSGNSQESVTEQDSKDSTYSLSSTLTLSKADYEKHKVYACEVTHQGLSSPVTKSFNRGECGGGGSGGGGSGGGSGGGGSEIVLTQSPGTLSLSPGERATLSCRASQSVTSSYLAWYQQKPGQAPRLLINVGSRRATGIPDRFSGSGSGTDFTLTISRLEPEDFAVYYCQQGIMLPPTFGQGTKVEIKSSASTKGPSVFPLAPSSKSTSGGTAALGCLVKDYFPEPVTVSWNSGALTSGVHTFPAVLQSSGLYSLSSVVTVPSSSLGTQTYICNVNHKPSNTKVDKKVEPKSC
notes: 2+1 contorsbody; IgG1 Fc knob/hole, P329G LALA
As to B1, in test [1], the Kd came out at 4.58 nM, the koff turned out to be 0.000253 s⁻¹, the kon came to 55300 M⁻¹ s⁻¹ and the “t 1/2” value stood at 45.7 min. Moreover, in test [2], the Kd was 15.7 nM, the koff is 0.0151 s⁻¹, the kon amounted to 957000 M⁻¹ s⁻¹ and the “t 1/2” value stood at 0.767 min.

B2: FAP (4B9)-CD40 Contorsbody P1AE2255 (bispecific antibody, IgG1)
chain 1: not shown
chain 2: EVQLLESGGGLVQPGGSLRLSCAASGYSFTGYYIHWVRQAPGKGLEWVGRVIPNAGGTSYNQKFKGRFTISVDNSKNTAYLQMNSLRAEDTAVYYCAREGIYWWGQGTTVTVSSASTKGPSVFPLAPSSKSTSGGTAALGCLVEDYFPEPVTVSWNSGALTSGVHTFPAVLQSSGLYSLSSVVTVPSSSLGTQTYICNVNHKPSNTKVDEKVEPKSCGGGGSGGGGSDKTHTCPPCPAPEAAGGPSVFLFPPKPKDTLMISRTPEVTCVVVDVSHEDPEVKFNWYVDGVEVHNAKTKPREEQYNSTYRVVSVLTVLHQDWLNGKEYKCKVSNKALGAPIEKTISKAKGQPREPQVCTLPPSRDELTKNQVSLSCAVKGFYPSDIAVEWESNGQPENNYKTTPPVLDSDGSFFLVSKLTVDKSRWQQGNVFSCSVMHEALHNHYTQKSLSLSPGKGGGGSGGGGSDIQMTQSPSSLSASVGDRVTITCRSSQSLVHSNGNTFLHWYQQKPGKAPKLLIYTVSNRFSGVPSRFSGSGSGTDFTLTISSLQPEDFATYFCSQTTHVPWTFGGGTKVEIKRTVAAPSVFIFPPSDRKLKSGTASVVCLLNNFYPREAKVQWKVDNALQSGNSQESVTEQDSKDSTYSLSSTLTLSKADYEKHKVYACEVTHQGLSSPVTKSFNRGECGGGGSGGGGSGGGSGGGGSEIVLTQSPGTLSLSPGERATLSCRASQSVTSSYLAWYQQKPGQAPRLLINVGSRRATGIPDRFSGSGSGTDFTLTISRLEPEDFAVYYCQQGIMLPPTFGQGTKVEIKSSASTKGPSVFPLAPSSKSTSGGTAALGCLVKDYFPEPVTVSWNSGALTSGVHTFPAVLQSSGLYSLSSVVTVPSSSLGTQTYICNVNHKPSNTKVDKKVEPKSC
notes: 2+1 contorsbody with charged residues in the CD40 Fabs; IgG1 Fc knob/hole, P329G LALA
Consider B2, for which, in test [1], the Kd is 4.44 nM, the koff was 0.000235 s⁻¹, the kon turned out to be 52800 M⁻¹ s⁻¹ and the “t 1/2” value is 49.2 min. For the same molecule, in test [2], the Kd turned out to be 17.3 nM, the koff came out at 0.0159 s⁻¹, the kon was found to be 918000 M⁻¹ s⁻¹ and the “t 1/2” value worked out at 0.733 min.

B3: FAP (4B9)-CD40 Contorsbody P1AE1800 (bispecific antibody, IgG1)
chain 1: not shown
chain 2: DIQMTQSPSSLSASVGDRVTITCRSSQSLVHSNGNTFLHWYQQKPGKAPKLLIYTVSNRFSGVPSRFSGSGSGTDFTLTISSLQPEDFATYFCSQTTHVPWTFGGGTKVEIKRTVAAPSVFIFPPSDEQLKSGTASVVCLLNNFYPREAKVQWKVDNALQSGNSQESVTEQDSKDSTYSLSSTLTLSKADYEKHKVYACEVTHQGLSSPVTKSFNRGECGGGGSGGGGSDKTHTCPPCPAPEAAGGPSVFLFPPKPKDTLMISRTPEVTCVVVDVSHEDPEVKFNWYVDGVEVHNAKTKPREEQYNSTYRVVSVLTVLHQDWLNGKEYKCKVSNKALGAPIEKTISKAKGQPREPQVCTLPPSRDELTKNQVSLSCAVKGFYPSDIAVEWESNGQPENNYKTTPPVLDSDGSFFLVSKLTVDKSRWQQGNVFSCSVMHEALHNHYTQKSLSLSPGKGGGGSGGGGSEVQLLESGGGLVQPGGSLRLSCAASGYSFTGYYIHWVRQAPGKGLEWVGRVIPNAGGTSYNQKFKGRFTISVDNSKNTAYLQMNSLRAEDTAVYYCAREGIYWWGQGTTVTVSSASTKGPSVFPLAPSSKSTSGGTAALGCLVKDYFPEPVTVSWNSGALTSGVHTFPAVLQSSGLYSLSSVVTVPSSSLGTQTYICNVNHKPSNTKVDKKVEPKSCGGGGSGGGGSGGGSGGGGSEIVLTQSPGTLSLSPGERATLSCRASQSVTSSYLAWYQQKPGQAPRLLINVGSRRATGIPDRFSGSGSGTDFTLTISRLEPEDFAVYYCQQGIMLPPTFGQGTKVEIKSSASTKGPSVFPLAPSSKSTSGGTAALGCLVKDYFPEPVTVSWNSGALTSGVHTFPAVLQSSGLYSLSSVVTVPSSSLGTQTYICNVNHKPSNTKVDKKVEPKSC
notes: as for B1
As for B3, in test [1], the Kd was found to be 9.07 nM, the koff worked out at 0.000778 s⁻¹, the kon stood at 85700 M⁻¹ s⁻¹ and the “t 1/2” value stood at 14.8 min. For the same molecule, in test [2], the Kd came out at 9.43 nM, the koff is 0.0127 s⁻¹, the kon is 1.35e+06 M⁻¹ s⁻¹ and the “t 1/2” value was found to be 0.917 min.

B4: FAP (4B9)-CD40 Contorsbody P1AE1901 (bispecific antibody, IgG1)
chain 1: not shown
chain 2: DIQMTQSPSSLSASVGDRVTITCRSSQSLVHSNGNTFLHWYQQKPGKAPKLLIYTVSNRFSGVPSRFSGSGSGTDFTLTISSLQPEDFATYFCSQTTHVPWTFGGGTKVEIKRTVAAPSVFIFPPSDEQLKSGTASVVCLLNNFYPREAKVQWKVDNALQSGNSQESVTEQDSKDSTYSLSSTLTLSKADYEKHKVYACEVTHQGLSSPVTKSFNRGECGGGGSGGGGSDKTHTCPPCPAPEAAGGPSVFLFPPKPKDTLMISRTPEVTCVVVDVSHEDPEVKFNWYVDGVEVHNAKTKPREEQYNSTYRVVSVLTVLHQDWLNGKEYKCKVSNKALGAPIEKTISKAKGQPREPQVCTLPPSRDELTKNQVSLSCAVKGFYPSDIAVEWESNGQPENNYKTTPPVLDSDGSFFLVSKLTVDKSRWQQGNVFSCSVMHEALHNHYTQKSLSLSPGKGGGGSGGGGSEVQLLESGGGLVQPGGSLRLSCAASGYSFTGYYIHWVRQAPGKGLEWVGRVIPNAGGTSYNQKFKGRFTISVDNSKNTAYLQMNSLRAEDTAVYYCAREGIYWWGQGTTVTVSSASTKGPSVFPLAPSSKSTSGGTAALGCLVKDYFPEPVTVSWNSGALTSGVHTFPAVLQSSGLYSLSSVVTVPSSSLGTQTYICNVNHKPSNTKVDKKVEPKSCGGGGSGGGGSGGGSGGGGSEVQLLESGGGLVQPGGSLRLSCAASGFTFSSYAMSWVRQAPGKGLEWVSAIIGSGASTYYADSVKGRFTISRDNSKNTLYLQMNSLRAEDTAVYYCAKGWFGGFNYWGQGTLVTVSSASVAAPSVFIFPPSDEQLKSGTASVVCLLNNFYPREAKVQWKVDNALQSGNSQESVTEQDSKDSTYSLSSTLTLSKADYEKHKVYACEVTHQGLSSPVTKSFNRGEC
notes: as for B1
Turning to B4, in test [1], the Kd was determined as 7.05 nM, the koff stood at 0.000269 s⁻¹, the kon was 38200 M⁻¹ s⁻¹ and the “t 1/2” value amounted to 43 min. In test [2], the Kd is 6.98 nM, the koff worked out at 0.00692 s⁻¹, the kon was determined as 991000 M⁻¹ s⁻¹ and the “t 1/2” value was found to be 1.67 min.

B5: FAP (4B9)-CD40 Contorsbody P1AE1902 (bispecific antibody, IgG1)
chain 1: not shown
chain 2: EVQLLESGGGLVQPGGSLRLSCAASGYSFTGYYIHWVRQAPGKGLEWVGRVIPNAGGTSYNQKFKGRFTISVDNSKNTAYLQMNSLRAEDTAVYYCAREGIYWWGQGTTVTVSSASTKGPSVFPLAPSSKSTSGGTAALGCLVKDYFPEPVTVSWNSGALTSGVHTFPAVLQSSGLYSLSSVVTVPSSSLGTQTYICNVNHKPSNTKVDKKVEPKSCGGGGSGGGGSDKTHTCPPCPAPEAAGGPSVFLFPPKPKDTLMISRTPEVTCVVVDVSHEDPEVKFNWYVDGVEVHNAKTKPREEQYNSTYRVVSVLTVLHQDWLNGKEYKCKVSNKALGAPIEKTISKAKGQPREPQVCTLPPSRDELTKNQVSLSCAVKGFYPSDIAVEWESNGQPENNYKTTPPVLDSDGSFFLVSKLTVDKSRWQQGNVFSCSVMHEALHNHYTQKSLSLSPGKGGGGSGGGGSDIQMTQSPSSLSASVGDRVTITCRSSQSLVHSNGNTFLHWYQQKPGKAPKLLIYTVSNRFSGVPSRFSGSGSGTDFTLTISSLQPEDFATYFCSQTTHVPWTFGGGTKVEIKRTVAAPSVFIFPPSDEQLKSGTASVVCLLNNFYPREAKVQWKVDNALQSGNSQESVTEQDSKDSTYSLSSTLTLSKADYEKHKVYACEVTHQGLSSPVTKSFNRGECGGGGSGGGGSGGGSGGGGSEVQLLESGGGLVQPGGSLRLSCAASGFTFSSYAMSWVRQAPGKGLEWVSAIIGSGASTYYADSVKGRFTISRDNSKNTLYLQMNSLRAEDTAVYYCAKGWFGGFNYWGQGTLVTVSSASVAAPSVFIFPPSDEQLKSGTASVVCLLNNFYPREAKVQWKVDNALQSGNSQESVTEQDSKDSTYSLSSTLTLSKADYEKHKVYACEVTHQGLSSPVTKSFNRGEC
notes: as for B1
Take B5: in test [1], the Kd stood at 5.33 nM, the koff was 0.000288 s⁻¹, the kon came to 54100 M⁻¹ s⁻¹ and the “t 1/2” value is 40.1 min. In addition, in test [2], the Kd was 18.7 nM, the koff was 0.0145 s⁻¹, the kon came out at 776000 M⁻¹ s⁻¹ and the “t 1/2” value amounted to 0.8 min.
